Results: patent publication US20240199739A1 (Takeda / Millennium, published 2024)

Molecular target: cyno EpCAM (cyno)
Assay: assay not stated; drawn table, heading 'Binding Affinity (nM)', column 'Cyno'

cyno EpCAM (cyno), sequence (Q1WER1 24-265): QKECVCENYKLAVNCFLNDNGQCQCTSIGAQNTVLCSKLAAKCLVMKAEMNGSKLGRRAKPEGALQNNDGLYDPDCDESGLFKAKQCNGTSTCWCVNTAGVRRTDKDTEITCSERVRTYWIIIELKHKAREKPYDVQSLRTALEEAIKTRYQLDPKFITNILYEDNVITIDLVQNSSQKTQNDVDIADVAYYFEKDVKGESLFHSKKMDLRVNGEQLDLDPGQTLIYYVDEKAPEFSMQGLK

B1: hVIB-23 (VHH)
VHH: QVQLVESGGGLVQPGGSLTLSCVISGSFSALWAMRWYRQAPGQQRELVASSRGGTTSYADSVKGRFTISRDNSKNTLYLQMNSLRPEDTAVYYCNAIDGHLAYWGQGTLVTVSS
Question: With B1 as the binder, how does the Kd read?
Answer: 51.8 nM
